Like-named read-outs stand apart in the source and are kept apart here. Square brackets hold non-standard residues; d marks the D form. Ends that are not written are not given here. * marks the point of attachment. NMeF = CN[C@@H](Cc1ccccc1)C(=O)O; NMeL = CN[C@@H](CC(C)C)C(=O)O; Octanoyl = CCCCCCCC(=O)*; Ava = NCCCCC(=O)O; Octyl = CCCCCCCC*
Legend:
[1] = target: T1, rat GHS-R (GHS receptor) expressed on CHO-GHSR62 cells (rat, UniProt O08725 1-364); assay: cell-based or functional assay
[2] = target: T1, rat GHS-R (GHS receptor) expressed on …; assay: cell-based or functional assay; remark: listed apart in the source
[3] = target: T1, rat GHS-R (GHS receptor) expressed on …; assay: cell-based or functional assay; remark: listed apart in the source
[4] = target: T1, rat GHS-R (GHS receptor) expressed on …; assay: cell-based or functional assay; remark: listed apart in the source
[5] = target: amino-terminal antibody (anti-[C-Cys]-rat ghrelin [1-11] antigen); assay: radioimmunoassay: inhibition of binding of radioisotope-labeled rat ghrelin to the amino-terminal antibody
[6] = target: T1, rat GHS-R (GHS receptor) expressed on …; assay: cell-based or functional assay; remark: listed apart in the source

T1 sequence (O08725 whole entry): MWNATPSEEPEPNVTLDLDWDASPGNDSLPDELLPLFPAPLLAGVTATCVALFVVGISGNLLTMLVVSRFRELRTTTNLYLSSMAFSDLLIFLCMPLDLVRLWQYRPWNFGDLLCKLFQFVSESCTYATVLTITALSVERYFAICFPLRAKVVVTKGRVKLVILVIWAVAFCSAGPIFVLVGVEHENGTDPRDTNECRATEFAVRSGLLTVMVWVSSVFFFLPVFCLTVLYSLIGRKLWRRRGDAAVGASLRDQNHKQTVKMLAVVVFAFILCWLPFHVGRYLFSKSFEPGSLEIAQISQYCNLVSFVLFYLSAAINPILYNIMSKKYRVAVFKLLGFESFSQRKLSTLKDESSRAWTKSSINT

Binder: [Ava]S(Octyl)[NMeF][NMeL]-NH2 [[N-Aminopentanoyl,Ser^3(Octyl),MePhe^4,MeLeu^5]-Ghrelin (3-5)-amide]
- EC50 [1]: 86 nM
- Activity EC50 [2]: 82 nM

Binder: GSS(Octanoyl)FLSPEHQKAQQRKESKKPPAKLQPR [rat ghrelin]
- Ca-releasing activity EC50 [1]: 2.5 nM
- Ca-releasing activity EC50 [3]: 1.5 nM
- EC50 value [4]: 1.5 nM
- cross-reactivity [5]: 100%

Binder: GSK(Octanoyl)FLSPEHQRVQQRKESKKPPAKLQPR [[Lys^3(Octanoyl)]-hGhrelin]
- Activity EC50 [6]: 32 nM
